Measured values published in patent publication US9932382B2, “Kv2.1 channel-derived peptides and methods of use” (University of Pittsburgh—Of the Commonwealth System of …, priority 2014, dated 2018).

Experiments:
Kv2.1/syntaxin binding = biological target: T1, Kv2.1/syntaxin binding (Homo sapiens, UniProt Q16623); assay: Co-immunoprecipitation of Kv2.1 with syntaxin from transfected CHO cells; assay type: cell-based; settings: for effect on Kv2.1/syntaxin binding (co-immunoprecipitation): syntaxin-expressing CHO cells co-transfected with Kv2.1 and peptide plasmid, syntaxin immunoprecipitates probed for Kv2.1
T1 construct: expressed in transfected cells; host or cells: CHO cells
Method: For electrophysiological experiments, mixed cortical neuronal/glial cultures were prepared from embryonic day 16 (E16) Sprague-Dawley rats (Charles River Laboratories, Wilmington, Mass., USA). Donor rats were euthanized by gradual CO2 exposure. Cortices were dissociated with trypsin, and the resultant cell suspension, adjusted to 670,000 cells per well, was plated on glass coverslips in 6-well plates as described previously (Hartnett et al., J Neurochem 68, 1836-1845, 1997). Non-neuronal cell proliferation was inhibited after two weeks in culture with 1-2 μM cytosine arabinoside, and cultures utilized at three to four weeks in vitro. For neuronal transfection, cells were treated for five hours in serum-free medium with 2 μL LIPOFECTAMINE™ 2000 (Invitrogen, Carlsbad, Calif.), 50 μL Optimem (GIBCO, Grand Island, N.Y.), and 1.5 μg DNA per well. For CHO cell transfections, cells were plated on coverslips in 24-well plates at a density of 5.6×10^4 cells per well for electrophysiological measurements or in 100 mm dishes at a density of 1.7×10^6 cells per dish for biochemical studies. Cells were treated for 3-4 hours in serum-free medium with a total of 1.2 μL LIPOFECTAMINE™ and 0.28 μg DNA per well for electrophysiology, or 55.1 μL LIPOFECTAMINE™ and 7.33 μg DNA per dish for biochemistry. Following transfection, cells were maintained in F12 medium containing fetal bovine serum at 37° C., 5% CO2 for 24 hours prior to experimentation.
Protein was harvested by washing cell culture dishes with ice cold PBS followed by a short incubation with 1% 3-[(3-cholamidopropyl) dimethylammonio]-1-propanesulfonate buffer. Protein A/G agarose bead slurry (Santa Cruz, Dallas, Tex.) was added to the samples and rocked at 4° C. for 1 hour in order to pre-clear non-specific protein binding. Samples were then incubated overnight at 4° C. with the appropriate immunoprecipitating antibodies. Following another incubation with the bead slurry, the protein samples were prepared/denatured by the addition of sample preparation buffer (625 mM Tris, 25% glycerol, 2% sodium dodecyl sulfate (SDS), 0.01% bromophenol blue and 5% β-mercaptoethanol) and heated at 95° C. for 5 min prior to SDS polyacrylamide gel electrophoresis and immunoblotting.
Protein samples from equal amounts of cell lysate were separated on 10% sodium dodecyl sulfate SDS polyacrylamide gels by electrophoresis using the Mini Protean 3 System (Bio-Rad, Hercules, Calif.). Separated protein bands were transferred onto 0.2 μm nitrocellulose membranes (Bio-Rad), blocked with 1% bovine serum albumin (BSA) in PBS with 0.05% Tween 20 (PBST) at room temperature for 1 hour, and probed with appropriate primary antibodies diluted in PBST. Blots were then incubated with infrared fluorescent goat secondary antibodies at room temperature for 1 hour, visualized using the Odyssey Imaging System (LI-COR Biosciences, Lincoln, Nebr.), and quantified using infrared fluorimetry.
After establishing that C1a effectively precluded the oxidant-induced K^+ current increase in neurons, studies were performed to identify the sub-domains within C1a that could retain the ability to disrupt Kv2.1/syntaxin binding. C1a was divided into overlapping proximal and distal segments, hereafter referred to as C1a411-472 and C1a441-522, respectively. Co-immunoprecipitation experiments were performed to compare the ability of C1a and the smaller segments to displace Kv2.1 from syntaxin. Syntaxin immunoprecipitates of protein samples obtained from CHO cells transfected with a syntaxin-expressing plasmid, and co-transfected with Kv2.1 together with C1a, C1a411-472, or C1a441-522, were probed for Kv2.1.

human syntaxin = biological target: T2, human syntaxin (Homo sapiens, UniProt Q16623); assay: Far-Western analysis of syntaxin binding to SPOT peptide arrays; settings: for syntaxin binding inferred from the overlapping peptide array: sequence deduced from or picked out of the 15-mer array, not spotted itself; for syntaxin binding to spotted peptide (fluorescence intensity): 15-mer peptides on PVDF membrane, human syntaxin over-expressing CHO cell lysate, four arrays
T2 construct: expressed in transfected cells; host or cells: CHO cells (lysate)
Method: FIG. 8: Binding of Kv2.1 peptides to syntaxin. The 76 overlapping Kv2.1 peptides were spot-plated as an array onto a polyvinylidene fluoride membrane using the SPOTS-synthesis method. Membranes were incubated with a human syntaxin over-expressing CHO cell lysate and a far-Western analysis of syntaxin binding to the peptide arrays was performed using a commercially available syntaxin antibody and fluorescently tagged secondary antibody. Fluorescence intensity was quantified as an index of syntaxin binding to the spot array. Bars represent the mean+/−SEM of binding in four independent arrays. […]

T1 sequence (Q16623 whole entry): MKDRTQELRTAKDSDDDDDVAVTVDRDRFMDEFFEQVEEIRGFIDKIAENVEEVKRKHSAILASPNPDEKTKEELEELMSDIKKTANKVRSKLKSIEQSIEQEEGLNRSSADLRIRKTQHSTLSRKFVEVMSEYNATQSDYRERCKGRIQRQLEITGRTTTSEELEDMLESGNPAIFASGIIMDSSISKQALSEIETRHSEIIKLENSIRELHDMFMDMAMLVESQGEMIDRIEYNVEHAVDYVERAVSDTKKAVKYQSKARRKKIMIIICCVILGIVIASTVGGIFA
T2 sequence (Q16623 whole entry): as above

Molecule	syntaxin binding inferred from the overlapping peptide array (human syntaxin)	effect on Kv2.1/syntaxin binding (co-immunoprecipitation) (Kv2.1/syntaxin binding)	syntaxin binding to spotted peptide (fluorescence intensity) (human syntaxin)	other results
C1a441-472: overlapping middle segment of C1a, residues 441-472 of rat Kv2.1 (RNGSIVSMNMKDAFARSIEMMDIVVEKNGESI; UniProt P15387 441-472, looked up, fragment)	–	had no effect on syntaxin's ability to bind to Kv2.1	–	mean±SEM ratio of Kv2.1 to syntaxin immunoblots (Kv2.1/syntaxin binding; CHO cells, n=3, baseline=0.24±0.08): 0.25±0.1
peptide #22: 15-mer, residues 472-486 of SEQ ID NO: 3 (DKVQDNHLSPNKWKW; listed as Rattus norvegicus)	–	–	initial peptide showing substantial binding	–
peptide #28: 15-mer, residues 478-492 of SEQ ID NO: 3 (HLSPNKWKWTKRALS; listed as Rattus norvegicus)	–	–	final peptide showing substantial binding	–
C1a411-472: proximal segment of C1a, residues 411-472 of rat Kv2.1 (protein, UniProt P15387 411-472, looked up, fragment) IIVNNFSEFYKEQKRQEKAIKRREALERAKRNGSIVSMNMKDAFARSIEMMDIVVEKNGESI	–	did not	–	–

Continued, in another order:

syntaxin binding inferred from the overlapping peptide array (human syntaxin)	Molecule	effect on Kv2.1/syntaxin binding (co-immunoprecipitation) (Kv2.1/syntaxin binding)	syntaxin binding to spotted peptide (fluorescence intensity) (human syntaxin)	other results
non-syntaxin-binding	DIVVEEKNGE (DIVVEKNGE; listed as Rattus norvegicus) [reference compound]	–	–	–
represents the syntaxin-binding domain	HLSPNKWKW (listed as Rattus norvegicus)	–	–	–
